Changes are numbered by the printed parent chain.
T1: human VISTA expressed on the cell surface (HEK293 cells transfected with human VISTA cDNA); native on human … (human, UniProt Q9H7M9 33-311)
T1 construct: whole, on cells; also called PD-1H
T1 sequence (looked up): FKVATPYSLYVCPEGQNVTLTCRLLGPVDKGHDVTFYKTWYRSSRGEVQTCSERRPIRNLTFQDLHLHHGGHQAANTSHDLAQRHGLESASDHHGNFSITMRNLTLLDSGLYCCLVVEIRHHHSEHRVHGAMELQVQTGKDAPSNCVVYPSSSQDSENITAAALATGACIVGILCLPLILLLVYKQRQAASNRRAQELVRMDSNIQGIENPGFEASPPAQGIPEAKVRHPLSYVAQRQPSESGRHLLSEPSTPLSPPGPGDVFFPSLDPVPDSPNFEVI

B1: humanized anti-VISTA antibody 14F1-HZD2 (antibody, human IgG1, kappa, V domains shown)
VH: EVQLLESGGGLVQPGGSLRLSCAASGFSFSSSYYMCWVRQAPGKGLEWVACFYAGFSGSTYYASWAKGRFTISRDNSKNTLYLQMNSLRAEDTAVYYCAKGASTYGYTGYDYAGDYFILWQPGTLVTVSS
VL: DIQMTQSPSSVSASVGDRVTITCQASQNIYSNLAWYQQKPGKAPKLLIYAASNLASGVPSRFSGSGSGTDFTLTISSLQPEDFATYYCQSAYYSSSADSYNAFGGGTKVEIKR
notes: kappa light chain
B2: humanized anti-VISTA antibody 41A11-HZD2 (antibody, human IgG1, kappa, V domains shown)
VH: B1 VH with A50G, S59G, S103N, I118T, Q121G, P122Q
VL: DIQMTQSPSTLSASVGDRVTITCQASQNIGSNLAWYQQKPGKAPKLLIYAASNLESGVPSRFSGSGSGTEFTLTISSLQPDDFATYYCQSAYYSSVDSYNTFGGGTKVEIKR
notes: kappa light chain
B3: humanized anti-VISTA antibody 2D12-HZD3 (antibody, human IgG1, kappa, V domains shown)
VH: EVQLVESGGGLVQPGGSLRLSCAASGIDLSSYAMGWVRQAPGKGLEWVGIISSSGSAFYASWAKGRFTISRDNSKNTLYLQMNSLRAEDTAVYYCARHYAGYTTPYYFNFWGQGTLVTVSS
VL: AIQMTQSPSSLSASVGDRVTITCQASENIYSNLAWYQQKPGKAPKVLIYAASDLASGVPSRFSGSGSGTDFTLTISSLQPEDFATYYCQQGFSSSNVDNAFGGGTKVEIKR
notes: kappa light chain
B4: humanized anti-VISTA antibody 3A5-HZD (antibody, human IgG1, kappa, V domains shown)
VH: EVQLVESGGGLVQPGGSLRLSCAASGFSLSSENWICWVRQAPGKGLEWVGCICGANGGSAYHANWVNGRFTISRDNSKNTLYLQMNSLRAEDTAVYYCARAAGVSNAYYFDLWGQGTLVTVSS
VL: DIQMTQSPSSVSASVGDRVTITCQASQYIYINLAWYQQKPGKAPKLLIYDASDLASGVPSRFSGSGSGTDFTLTISSLQPEDFATYYCQCTYGGSTYGNAFGGGTKVEIKR
notes: kappa light chain
B5: humanized anti-VISTA antibody 29G7-HZD2 (antibody, human IgG1, kappa, V domains shown)
VH: EVQLVESGGGLVQPGGSLRLSCAASGFSLSSYAMGWVRQAPGKGLEWVGIIIVSGNIYYASWAKGRFTISRDNSKNTLYLQMNSLRAEDTAVYYCARGDGYTYGLWGQGTLVTVSS
VL: DIQMTQSPSTLSASVGDRVTITCQASQSVYSRYLAWYQQKPGKAPKLLIYSASTLASGVPSRFSGSGSGTEFTLTISSLQPDDFATYYCQGTFYIPDYIDGFGGGTKVEIKR
notes: kappa light chain
B6: humanized anti-VISTA antibody 29G7-HZD4 (antibody, human IgG1, kappa, V domains shown)
VH: B5 VH
VL: EIVMTQSPATLSLSPGERATLSCQASQSVYSRYLAWYQQKPGQAPRLLIYSASTLASGIPARFSGSGSGTDFTLTISSLQPEDFAVYYCQGTFYIPDYIDGFGGGTKVEIKR
notes: kappa light chain
B7: humanized anti-VISTA antibody 14D8-HZD2 (antibody, human IgG1, kappa, V domains shown)
VH: EVQLVESGGGLVQPGGSLRLSCAASGFDLSSAYYMCWVRQAPGKGLEWVGCIATGSGSTYYASWAKGRFTISRDNSKNTLYLQMNSLRAEDTAVYYCARAPYYSYDGYDYALNLWGQGTLVTVSS
VL: DIQMTQSPSSVSASVGDRVTITCQASEDIVTYLAWYQQKPGKAPKLLIYAASTLASGVPSRFSGSGSGTDFTLTISSLQPEDFATYYCQQTYNYADTDNAFGGGTKVEIKR
notes: kappa light chain

What follows are binders tested against T1, human VISTA expressed on the cell … (assay: method not stated; table follows flow cytometry on HEK293 cells transfected with human VISTA).
Work on B1 yielded a Kd of 2.19 nM.
B2 gave a Kd of 1.35 nM.
With B3 the Kd was 1.31 nM.
Binder B4 has a Kd of 0.293 nM.
With B5 the Kd was 0.281 nM.
Work on B6 yielded a Kd of 0.295 nM.
In the case of B7, the Kd is reported as 2.2 nM.

What follows are binders tested against T1, human VISTA expressed on the cell … (assay: flow cytometry on HEK293 cells transfected with human VISTA, detection with anti-human Ig; EC50 table under the graph).
Method: In order to examine the ability of the 7 humanized anti-VISTA antibodies to bind to cell surface expressed VISTA, HEK293 cells were transfected with human VISTA cDNA for 24 hours using Fugene 6 transfection reagent. Cells were harvested by trypsinization, re-suspended in FACS buffer and plated in 96-well plates. Cells were incubated with the concentration of anti-VISTA antibodies indicated in FIG. 5 for 30 minutes on ice. Antibodies were detected using anti-human Ig antibodies and binding was assessed on the MACSQuant flow cytometer (FIG. 5).
B1 was tested, and the EC50 was 2.95 nM.
Binder B2 has an EC50 of 1.84 nM.
In the case of B3, the EC50 is reported as 1.75 nM.
Work on B4 yielded an EC50 of 0.483 nM.
Binder B5 has an EC50 of 0.463 nM.
Work on B6 yielded an EC50 of 0.477 nM.
Work on B7 yielded an EC50 of 2.83 nM.

From US20210139589A1 (APEXIGEN, published 2021)
